From PMC10952621, “Long QT syndrome‐associated calmodulin variants disrupt the activity of the slowly activating delayed rectifier potassium channel” (The Journal of Physiology, 2023) come the findings set out here.

The target in the assay is human wild-type calmodulin (CaM-WT) (human, UniProt P0DP23 2-149). The experiment in a line: ITC; Kv7.1-HA peptide titrated into CaM (~50 uM) in the cell; 50 mM Na-HEPES, 100 mM KCl, 2 mM MgCl2, pH 7.5, 5 mM CaCl2; 25 °C; one-site binding model. The settings on record: both partners purified.

B1: Kv7.1-HA(370-389) peptide, helix A of the KCNQ1 C-terminus (peptide)
peptide: AAASLIQTAWRCYAAENPDS
notes: source: synthetic peptide (GenicBio, HPLC purified, >95% purity)
In the case of B1, the Kd was around 96 µM.
